Reference: US20240182553A1 (NANJING GENSCRIPT BIOTECH, published 2024)

T1: Ang2 protein (R&D system) (UniProt O15123 19-496)
T1 sequence (looked up): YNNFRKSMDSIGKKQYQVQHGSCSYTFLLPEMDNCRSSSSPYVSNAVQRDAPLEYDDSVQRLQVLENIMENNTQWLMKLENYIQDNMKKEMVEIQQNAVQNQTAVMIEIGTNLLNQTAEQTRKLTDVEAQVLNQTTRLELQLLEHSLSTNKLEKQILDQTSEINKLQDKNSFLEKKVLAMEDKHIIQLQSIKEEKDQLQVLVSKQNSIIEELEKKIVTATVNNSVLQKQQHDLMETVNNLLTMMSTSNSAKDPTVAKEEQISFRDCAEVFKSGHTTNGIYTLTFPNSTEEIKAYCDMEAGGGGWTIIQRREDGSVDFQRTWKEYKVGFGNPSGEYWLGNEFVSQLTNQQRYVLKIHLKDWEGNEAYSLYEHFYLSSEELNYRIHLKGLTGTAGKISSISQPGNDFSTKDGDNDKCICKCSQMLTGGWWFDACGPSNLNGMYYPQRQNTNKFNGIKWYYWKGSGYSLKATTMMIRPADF


Target: T1, Ang2 protein (R&D system)
Experiment: cell-based or functional assay

EC50 (phospho-Akt Ser473 HTRF dose-response, HUVEC + Ang2) [nM] | Span (phospho-Akt Ser473 HTRF dose-response, HUVEC + Ang2) | Binder
4.36 | 6380 HTRF ratio (665nm/620nm) | hABTAA-VH-vegfrVL (bispecific antibody, human IgG4 S228P, kappa) heavy chain: not shown light chain fusion polypeptide (VEGF-trap at N' of LC): SDTGRPFVEMYSEIPEIIHMTEGRELVIPCRVTSPNITVTLKKFPLDTLIPDGKRIIWDSRKGFIISNATYKEIGLLTCEATVNGHLYKTNYLTHRQTNTIIDVVLSPSHGIELSVGEKLVLNCTARTELNVGIDFNWEYPSSKHQHKKLVNRDLKTQSGSEMKKFLSTLTIDGVTRSDQGLYTCAASSGLMTKKNSTFVRVHEKGGGGSGGGGSGGGGSDIQMTQSPSSLSASVGDRVTITCKASQSVSNDVAWYQQKPGKAPKLLIYYASNRYPGVPSRFSGSGSGTDFTLTISSLQPEDFATYYCQQDYSSPWTFGQGTKLEIKRTVAAPSVFIFPPSDEQLKSGTASVVCLLNNFYPREAKVQWKVDNALQSGNSQESVTEQDSKDSTYSLSSTLTLSKADYEKHKVYACEVTHQGLSSPVTKSFNRGEC
4.72 | 7740 HTRF ratio (665nm/620nm) | vegfr-5A7B9-VL1.1-VH3 (bispecific antibody, human IgG4 S228P, kappa) heavy: not shown light: SDTGRPFVEMYSEIPEIIHMTEGRELVIPCRVTSPNITVTLKKFPLDTLIPDGKRIIWDSRKGFIISNATYKEIGLLTCEATVNGHLYKTNYLTHRQTNTIIDVVLSPSHGIELSVGEKLVLNCTARTELNVGIDFNWEYPSSKHQHKKLVNRDLKTQSGSEMKKFLSTLTIDGVTRSDQGLYTCAASSGLMTKKNSTFVRVHEKGGGGSGGGGSGGGGSDIQMTQSPSSLSASVGDRVTITCKASQSVSNDVAWYQQKPGKAPKLLIYYASNRYTGVPSRFSGSGSGTDFTLTISSLQPEDFATYFCQQDYSSPLTFGGGTKLEIKRTVAAPSVFIFPPSDEQLKSGTASVVCLLNNFYPREAKVQWKVDNALQSGNSQESVTEQDSKDSTYSLSSTLTLSKADYEKHKVYACEVTHQGLSSPVTKSFNRGEC
883 | 14300 HTRF ratio (665nm/620nm) | hABTAA-VHvegfr-VL (bispecific antibody, human IgG4 S228P, kappa) heavy: not shown light: DIQMTQSPSSLSASVGDRVTITCKASQSVSNDVAWYQQKPGKAPKLLIYYASNRYPGVPSRFSGSGSGTDFTLTISSLQPEDFATYYCQQDYSSPWTFGQGTKLEIKRTVAAPSVFIFPPSDEQLKSGTASVVCLLNNFYPREAKVQWKVDNALQSGNSQESVTEQDSKDSTYSLSSTLTLSKADYEKHKVYACEVTHQGLSSPVTKSFNRGEC
3.25 | 5440 HTRF ratio (665nm/620nm) | hABTAA-VH-VLvegfr (bispecific antibody, human IgG4 S228P, kappa) heavy chain: not shown light chain fusion polypeptide (VEGF-trap at C' of LC): DIQMTQSPSSLSASVGDRVTITCKASQSVSNDVAWYQQKPGKAPKLLIYYASNRYPGVPSRFSGSGSGTDFTLTISSLQPEDFATYYCQQDYSSPWTFGQGTKLEIKRTVAAPSVFIFPPSDEQLKSGTASVVCLLNNFYPREAKVQWKVDNALQSGNSQESVTEQDSKDSTYSLSSTLTLSKADYEKHKVYACEVTHQGLSSPVTKSFNRGECESKYGPPSPPSPSDTGRPFVEMYSEIPEIIHMTEGRELVIPCRVTSPNITVTLKKFPLDTLIPDGKRIIWDSRKGFIISNATYKEIGLLTCEATVNGHLYKTNYLTHRQTNTIIDVVLSPSHGIELSVGEKLVLNCTARTELNVGIDFNWEYPSSKHQHKKLVNRDLKTQSGSEMKKFLSTLTIDGVTRSDQGLYTCAASSGLMTKKNSTFVRVHEK

Second part, the binder before the results:

Binder | EC50 (phospho-Akt Ser473 HTRF dose-response, HUVEC + Ang2) [nM] | Span (phospho-Akt Ser473 HTRF dose-response, HUVEC + Ang2)
7F10B2-VH3-vegfr-VL3 (bispecific antibody, human IgG4 S228P, kappa) heavy: not shown light: DIQMTQSPSSLSASVGDRVTITCKASQSVSNDVAWYQQKPGKAPKLLIYYASNRFTGVPSRFSGSGSGTDFTLTISSLQPEDFATYYCQQDYSSRTFGGGTKVEIKRTVAAPSVFIFPPSDEQLKSGTASVVCLLNNFYPREAKVQWKVDNALQSGNSQESVTEQDSKDSTYSLSSTLTLSKADYEKHKVYACEVTHQGLSSPVTKSFNRGEC | 2.59 | 7330 HTRF ratio (665nm/620nm)
hABTAA anti-Ang2 antibody (antibody, human IgG4 S228P, kappa, V domains shown) VH: QVQLQESGPGLVKPSETLSLTCAVSGYSITSDYAWNWIRQPPGKGLEWMGKISYSGKTDYNPSLKSRSTISRDTSKNQFSLKLSSVTAADTAVYYCARGNFEGAMDYWGQGTLVTVSS VL: DIQMTQSPSSLSASVGDRVTITCKASQSVSNDVAWYQQKPGKAPKLLIYYASNRYPGVPSRFSGSGSGTDFTLTISSLQPEDFATYYCQQDYSSPWTFGQGTKLEIKR | 2.53 | 5590 HTRF ratio (665nm/620nm)
7F10B2-VL3-vegfr-VH3 (bispecific antibody, human IgG4 S228P, kappa) heavy: not shown light: DIQMTQSPSSLSASVGDRVTITCKASQSVSNDVAWYQQKPGKAPKLLIYYASNRFTGVPSRFSGSGSGTDFTLTISSLQPEDFATYYCQQDYSSRTFGGGTKVEIKRTVAAPSVFIFPPSDEQLKSGTASVVCLLNNFYPREAKVQWKVDNALQSGNSQESVTEQDSKDSTYSLSSTLTLSKADYEKHKVYACEVTHQGLSSPVTKSFNRGECESKYGPPSPPSPSDTGRPFVEMYSEIPEIIHMTEGRELVIPCRVTSPNITVTLKKFPLDTLIPDGKRIIWDSRKGFIISNATYKEIGLLTCEATVNGHLYKTNYLTHRQTNTIIDVVLSPSHGIELSVGEKLVLNCTARTELNVGIDFNWEYPSSKHQHKKLVNRDLKTQSGSEMKKFLSTLTIDGVTRSDQGLYTCAASSGLMTKKNSTFVRVHEK | 2.27 | 7460 HTRF ratio (665nm/620nm)
5F7D7-VH3-vegfr-VL5 (bispecific antibody, human IgG4 S228P, kappa) heavy: not shown light: DIQMTQSPSSLSASVGDRVTITCKASQSVSNDVAWYQQKPGKAPKLLIYFASNRYTGVPSRFSGSGYGTDFTFTISSLQPEDIATYFCQQDYSSPYTFGGGTKLEIKRTVAAPSVFIFPPSDEQLKSGTASVVCLLNNFYPREAKVQWKVDNALQSGNSQESVTEQDSKDSTYSLSSTLTLSKADYEKHKVYACEVTHQGLSSPVTKSFNRGEC | ~2.12 | 7020 HTRF ratio (665nm/620nm)
31E2D4-VH4-vegfr-VL1 (bispecific antibody, human IgG4 S228P, kappa) heavy: not shown light: DIQMTQSPSSLSASVGDRVTITCKASQSVSNDVAWYQQKPGKAPKLLIYYASNRYTGVPSRFSGSGSGTDFTLTISSLQPEDFATYYCQQDYSSPLTFGGGTKLEIKRTVAAPSVFIFPPSDEQLKSGTASVVCLLNNFYPREAKVQWKVDNALQSGNSQESVTEQDSKDSTYSLSSTLTLSKADYEKHKVYACEVTHQGLSSPVTKSFNRGEC | 2.39 | 7380 HTRF ratio (665nm/620nm)
